# Assay results from patent publication US20160109449A1 (JULIUS MAXIMILIANS UNIVERSITAET WUERZBURG, published 2016).
# T1: IsaA oligopeptide SEQ ID NO: 57 (Staphylococcus aureus)
# T1 construct: Synthetic 15-mer of IsaA, spotted on a glass slide
# T1 peptide: PSGASGLFQTMPGWG
# T2: IsaA oligopeptide SEQ ID NO: 62 (Staphylococcus aureus)
# T2 construct: Synthetic 15-mer of IsaA, spotted on a glass slide
# T2 peptide: DQQINAAVKAYKAQG
# B1: monoclonal antibody MAB-UK-66 secreted by hybridoma cell line DSM ACC2987 (antibody, V domains shown)
# VH: DVKLVESGGGLVKLGGSLKLSCSASGFTFSNYYMSWVRQTPEKRLELVADINGNGGSTYYPDTVKGRFTISRDNAKNTLYLQMSSLKSEDTALYYCVRRGGYYALDYWGQGTTVTVSS
# VL: DVVMTQTPLSLPVSLGDQASISCRSSQSLVHINGNTYLHWYLQKPGQSPKLLIYRVSNRFSGVPDRFSGSGSGTDFTLKISRVEAEDLGVYFCSQSTHVPWTFGGGTKLELKR
# notes: Monoclonal mouse antibody from a hybridoma; Detected with anti-mouse IgG; also called antibodies secreted by cell line DSM ACC2987; anti-IsaA MAB
# Assays:
# [1] = molecular target: T1, IsaA oligopeptide SEQ ID NO: 57; assay: peptide array on glass slide, fluorescent secondary antibody;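 note: binding of a hybridoma-secreted monoclonal antibody to immobilized oligopeptide spots, compared with control antibodies, detected through a fluorescence-labeled secondary antibody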
# Experimental: (§1) Each oligopeptide was immobilized on a small spot on a glass side. Binding of the monoclonal antibodies secreted by the hybridoma cell line DSM ACC2987 and of control antibodies to these spots was examined upon incubation with these antibodies by binding of fluorescence labeled secondary antibodies and detecting fluorescence intensities.
# [2] = molecular target: T2, IsaA oligopeptide SEQ ID NO: 62; assay: as above
# Experimental: as §1
binder,measurement,setting,value
B1,Binding (fluorescence intensity),[1],16800
same,Binding (fluorescence intensity),[2],551
